According to patent publication US20200087405A1 (UNIVERSITY OF SASKATCHEWAN, published 2020):

T1: Fc-tagged ECD of ErbB4 (ErbB family member, R&D 1131-ER) (human, UniProt Q15303 26-651)
T1 construct: extracellular domain; not shown: Fc tag of the bought protein
T1 sequence (looked up): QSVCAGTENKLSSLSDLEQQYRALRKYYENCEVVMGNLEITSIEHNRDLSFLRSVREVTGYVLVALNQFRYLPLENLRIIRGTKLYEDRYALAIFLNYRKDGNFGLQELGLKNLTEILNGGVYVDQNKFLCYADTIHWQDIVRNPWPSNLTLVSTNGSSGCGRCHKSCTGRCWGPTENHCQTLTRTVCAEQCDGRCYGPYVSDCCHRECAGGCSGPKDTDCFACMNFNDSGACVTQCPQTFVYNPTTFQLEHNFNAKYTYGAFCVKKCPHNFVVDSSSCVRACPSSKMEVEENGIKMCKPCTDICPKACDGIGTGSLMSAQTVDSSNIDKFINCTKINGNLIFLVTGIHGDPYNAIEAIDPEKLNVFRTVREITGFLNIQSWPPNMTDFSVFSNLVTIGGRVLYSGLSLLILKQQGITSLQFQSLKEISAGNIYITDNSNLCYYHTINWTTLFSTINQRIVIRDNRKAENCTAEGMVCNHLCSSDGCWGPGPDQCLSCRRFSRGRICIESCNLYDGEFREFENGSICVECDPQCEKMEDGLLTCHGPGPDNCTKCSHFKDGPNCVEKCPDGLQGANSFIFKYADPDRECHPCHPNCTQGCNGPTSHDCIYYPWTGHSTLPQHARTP


Assays:
[1] = target: T2, Fc-tagged extracellular domain (ECD) of the recombinant human EGFR (rhEGFR) (human, UniProt P00533 25-645); assay: competitive phage ELISA with soluble rhEGFR as competitor, phage-displayed Fab
T2 construct: extracellular domain; also called rhEGFR-ECD; rhEGFR-ECD-Fc; not shown: Fc tag of the bought protein (R&D 344-ER)

[2] = target: T3, EGFR-DM (Y251A/R285S) on HEK293F cells (UniProt P00533 25-1210); assay: flow cytometry on HEK293F cells transiently expressing EGFR-DM
T3 construct: whole, on cells; not shown: C-terminal GFP of the parent EGFR-GFP construct

[3] = target: T4, EGFR-D28 on HEK293F cells (UniProt P00533 25-1210); assay: flow cytometry on HEK293F cells transiently expressing EGFR-D28
T4 construct: whole, on cells; also called EGFR-28; not shown: C-terminal GFP of the parent EGFR-GFP construct

[4] = target: T5, cell-surface EGFR (endogenous on A431, MDA-MB-231 and other cancer cell lines); pBABE-EGFR transfected 293T … (UniProt P00533 25-1210, limits assumed); assay: flow cytometry dose response on A431 cells, without EGF
T5 construct: whole, on cells; Untagged EGFR on cells; also called endogenous cell-surface EGFR; EGFR1

[5] = target: T6, EGFR-vIII on HEK293F cells (UniProt P00533 25-1210); assay: flow cytometry, HEK293F cells transiently expressing EGFR-vIII against cells expressing GFP
T6 construct: whole, on cells

[6] = target: T2, Fc-tagged extracellular domain (ECD) of …; assay: competitive phage ELISA with soluble rhEGFR as competitor, phage-displayed Fab; affinity-matured clone Fab 8708
[7] = target: T7, full-length EGFR with a C-terminal GFP fusion (EGFR-GFP) on HEK293F cells (UniProt P00533 25-1210); assay: flow cytometry dose response on EGFR-293F cells
T7 construct: whole, on cells; also called EGFR (HEK293F transfected); not shown: C-terminal GFP fusion

[8] = target: T8, Fc-tagged ECD of ErbB2 (ErbB family member, R&D 1129-ER) (human, UniProt P04626 23-652); assay: ELISA on immobilized Fc-tagged ErbB ECDs
T8 construct: extracellular domain; not shown: Fc tag of the bought protein

[9] = target: T9, Fc-tagged ECD of ErbB3 (R&D 348-RB) (human, UniProt P21860 20-643); assay: ELISA on immobilized Fc-tagged ErbB ECDs
T9 construct: extracellular domain; also called ErbB family member; not shown: Fc tag of the bought protein

[10] = target: T1, Fc-tagged ECD of ErbB4 (ErbB family …); assay: ELISA on immobilized Fc-tagged ErbB ECDs
[11] = target: T7, full-length EGFR with a C-terminal GFP …; assay: flow cytometry on HEK293F cells transiently expressing EGFR
[12] = target: T3, EGFR-DM (Y251A/R285S) on HEK293F cells; assay: flow cytometry dose response on transfected HEK293F cells
[13] = target: T4, EGFR-D28 on HEK293F cells; assay: as above
[14] = target: T2, Fc-tagged extracellular domain (ECD) of …; assay: biolayer interferometry, Fab immobilized, rhEGFR in solution, 1:1 global fit
[15] = target: T10, EGFR fragment D3-D4 on HEK293F cells (UniProt P00533 334-645, limits assumed); assay: flow cytometry heat map of relative binding, 293F cells expressing EGFR EC domains
T10 construct: domain: D3-D4

[16] = target: T11, EGFR fragment D2-D3-D4 on HEK293F cells (UniProt P00533 190-645, limits assumed); assay: as above
T11 construct: domain: D2-D3-D4

[17] = target: T2, Fc-tagged extracellular domain (ECD) of …; assay: multi-point competitive ELISA: soluble EGFR competes with immobilized EGFR for Clone 23
[18] = target: T2, Fc-tagged extracellular domain (ECD) of …; assay: multi-point competitive ELISA: soluble EGFR competes with immobilized EGFR for Clone 24
[19] = target: T2, Fc-tagged extracellular domain (ECD) of …; assay: ELISA: biotinylated EGF on immobilized EGFR, with or without pre-incubation with unlabeled EGF
[20] = target: T5, cell-surface EGFR (endogenous on A431, …); assay: flow cytometry dose response on A431 cells after incubation with 10 nM EGF
[21] = target: T2, Fc-tagged extracellular domain (ECD) of …; assay: biolayer interferometry, Fab immobilized, rhEGFR-ECD-Fc in solution, 1:1 model

EC50 [2] [nM] | EC50 [3] [nM] | EC50 (read off the curve) [4] [nM] | binding result [5] | EC50 (read off the curve) [7] [nM] | binding result [8] | binding result [9] | binding result [10] | EC50 [11] [nM] | fold change of EC50 against EGFR [12] [fold] | fold change of EC50 against EGFR [13] [fold] | Kd [14] [nM] | koff [14] [s⁻¹] | kon [14] [M⁻¹ s⁻¹] | binding result [15] | binding result [16] | Binder | also measured
23 | 21 | ~6 | no binding (tested: 200 nM) | ~6 | no binding | no binding | no binding | 8.2 | < 3 | < 3 | 6.8 | 5.6e-05 | 7000 | no binding | no binding | Fab 8708 (Fab DL06 AM SR02) (Fab, Purified Fab in most assays; also called DL06 SR02; Fab DL06 SR02) heavy: EVQLVESGGGLVQPGGSLRLSCAASGFNISSSSIHWVRQAPGKGLEWVAYISSYYSSTYYADSVKGRFTISADTSKNTAYLQMNSLRAEDTAVYYCARTYCPPLMRYNPTTYQMDVNPEAQYSFGATCGWAMDYWGQGTLVTVSSASTKGPSVFPLAPSSKSTSGGTAALGCLVKDYFPEPVTVSWNSGALTSGVHTFPAVLQSSGLYSLSSVVTVPSSSLGTQTYICNVNHKPSNTKVDKKVEPKSCDKTHT light: DIQMTQSPSSLSASVGDRVTITCRASQSVSSAVAWYQQKPGKAPKLLIYSASSLYSGVPSRFSGSRSGTDFTLTISSLQPEDFATYYCQQWSYYPITFGQGTKVEIKRTVAAPSVFIFPPSDSQLKSGTASVVCLLNNFYPREAKVQWKVDNALQSGNSQESVTEQDSKDSTYSLSSTLTLSKADYEKHKVYACEVTHQGLSSPVTKSFNRGECGGSDYKDDDDK | fold enhancement in affinity against parent Fab DL06 [1]: 7 fold; IC50 [6]: ~30 nM
 |  |  |  |  |  |  |  |  |  |  |  |  |  |  |  | Fab DL06 AM Clone 23 (Fab, Purified Fab) heavy: EVQLVESGGGLVQPGGSLRLSCAASGFNISSSSIHWVRQAPGKGLEWVAYISSYYSSTYYADSVKGRFTISADTSKNTAYLQMNSLRAEDTAVYYCARTFCPPIMLFNATSFELDIDAEAKFSFASTCGWAMDYWGQGTLVTVSSASTKGPSVFPLAPSSKSTSGGTAALGCLVKDYFPEPVTVSWNSGALTSGVHTFPAVLQSSGLYSLSSVVTVPSSSLGTQTYICNVNHKPSNTKVDKKVEPKSCDKTHT light: DIQMTQSPSSLSASVGDRVTITCRASQSVSSAVAWYQQKPGKAPKLLIYSASSLYSGVPSRFSGSRSGTDFTLTISSLQPEDFATYYCQQWSYYPITFGQGTKVEIKRTVAAPSVFIFPPSDSQLKSGTASVVCLLNNFYPREAKVQWKVDNALQSGNSQESVTEQDSKDSTYSLSSTLTLSKADYEKHKVYACEVTHQGLSSPVTKSFNRGECGGSDYKDDDDK | binding result [17]: binds
 |  |  |  |  |  |  |  |  |  |  |  |  |  |  |  | Fab DL06 AM Clone 24 (Fab, Purified Fab) heavy: EVQLVESGGGLVQPGGSLRLSCAASGFNISSSSIHWVRQAPGKGLEWVAYISSYYSSTYYADSVKGRFTISADTSKNTAYLQMNSLRAEDTAVYYCARTFCPPLMLFNPTTFQLEINAEAKYSFASTCGWAMDYWGQGTLVTVSSASTKGPSVFPLAPSSKSTSGGTAALGCLVKDYFPEPVTVSWNSGALTSGVHTFPAVLQSSGLYSLSSVVTVPSSSLGTQTYICNVNHKPSNTKVDKKVEPKSCDKTHT light: DIQMTQSPSSLSASVGDRVTITCRASQSVSSAVAWYQQKPGKAPKLLIYSASSLYSGVPSRFSGSRSGTDFTLTISSLQPEDFATYYCQQWSYYPITFGQGTKVEIKRTVAAPSVFIFPPSDSQLKSGTASVVCLLNNFYPREAKVQWKVDNALQSGNSQESVTEQDSKDSTYSLSSTLTLSKADYEKHKVYACEVTHQGLSSPVTKSFNRGECGGSDYKDDDDK | binding result [18]: binds
 |  |  |  |  |  |  |  |  |  |  |  |  |  |  |  | Recombinant EGF ligand (ligand, UniProt P01133 971-1023, looked up, biotinylated with the N-hydroxysuccinimide ester of biotin in the ligand binding ELISA, also called biotinylated EGF) NSDSECPLSHDGYCLHDGVCMYIEALDKYACNCVVGYIGERCQYRDLKWWELR | binding result [19]: binds
1.4 | 1.4 | ~0.6 | no binding (tested: 200 nM) | ~0.6 | no binding | no binding | no binding | 0.6 | < 3 | < 3 | 1.4 | 0.00017 | 130000 | no binding | no binding | Fab 8709 (Fab H) (Fab, From library F. Purified Fab in most assays) heavy: EVQLVESGGGLVQPGGSLRLSCAASGFNLYSSSMHWVRQAPGKGLEWVASIYPYSGYTYYADSVKGRFTISADTSKNTAYLQMNSLRAEDTAVYYCARYPFGVSAYYAMDYWGQGTLVTVSSASTKGPSVFPLAPSSKSTSGGTAALGCLVKDYFPEPVTVSWNSGALTSGVHTFPAVLQSSGLYSLSSVVTVPSSSLGTQTYICNVNHKPSNTKVDKKVEPKSCDKTHT light: DIQMTQSPSSLSASVGDRVTITCRASQSVSSAVAWYQQKPGKAPKLLIYSASSLYSGVPSRFSGSRSGTDFTLTISSLQPEDFATYYCQQSYWLITFGQGTKVEIKRTVAAPSVFIFPPSDSQLKSGTASVVCLLNNFYPREAKVQWKVDNALQSGNSQESVTEQDSKDSTYSLSSTLTLSKADYEKHKVYACEVTHQGLSSPVTKSFNRGECGGSDYKDDDDK | EC50 (read off the curve) [20]: ~3 nM; fold faster off-rate than Fab 8708 [21]: 3 fold; fold faster on-rate than Fab 8708 [21]: 18 fold
